Data as given in the supplement of paper PMC6755084.

B1: minF1; the commonest letter at each place (parent)
chain: GAGACCGCAACTGAAAAGTTGTTATCAGAAATGGATGGGTTGAATTTCTGCACGTAGAAGCAAAAGGC

Variants of: B1
Assay: fraction ligated after 30 min (ligated reads / total reads); higher = more ligase activity
Conditions: with F1*subA RNA substrate (template-directed ligation), 42 °C
Outline: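 Ligated and unligated RNAs from a pool of minimized ligase ribozyme variants were separated on gels, reverse transcribed with barcoded primers and sequenced on a MiSeq. Core bases needed quality ≥30 to pass the filter. Each variant's fraction ligated was then taken as ligated reads over total reads.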

Row | Variant | fraction ligated
1 | GAGACCGCAACTGAAAAGTTGTTAACAGTAATGGATGGGTTGAATTTCTGCACGTAGAAGCAAAAGGC | 0.015
2 | GAGACCGCAACTGAAAAGTTGTTAACAGGAATGGATGGGTTGAATTTCTGCACGTAGAAGCAAAAGGC | 0.00957
3 | GAGACCGCAACTGAAAAGTTGTTAACAGCAATGGATGGGTTGAATTTCTGCACGTAGAAGCAAAAGGC | 0.00458
4 | GAGACCGCAACTGAAAAGTTGTTTTCAGAAATGGAAGGGTTGAATTTCTGCACGTAGAAGCAAAAGGC | 0.0205
5 | GAGACCGCAACTGAAAAGTTGTTTTCAGAAATGGAGGGGTTGAATTTCTGCACGTAGAAGCAAAAGGC | 0.0114
6 | GAGACCGCAACTGAAAAGTTGTTTTCAGAAATGGACGGGTTGAATTTCTGCACGTAGAAGCAAAAGGC | 0.00304
7 | GAGACCGCAACTGAAAAGTTGTTAACAGAAATGGGTGGGTTGAATTTCTGCACGTAGAAGCAAAAGGC | 0.0048
8 | GAGACCGCAACTGAAAAGTTGTTAACAGAAATGGCTGGGTTGAATTTCTGCACGTAGAAGCAAAAGGC | 0.0123
9 | GAGACCGCAACTGAAAAGTTGTTAACAGAAATGGTTGGGTTGAATTTCTGCACGTAGAAGCAAAAGGC | 0.458
10 | GAGACCGCAACTGAAAAGTTGTTAACAGAACTGGATGGGTTGAATTTCTGCACGTAGAAGCAAAAGGC | 0.00883
11 | GAGACCGCAACTGAAAAGTTGTTAACAGAATTGGATGGGTTGAATTTCTGCACGTAGAAGCAAAAGGC | 0.00708
12 | GAGACCGCAACTGAAAAGTTGTTAACAGAAGTGGATGGGTTGAATTTCTGCACGTAGAAGCAAAAGGC | 0.0139
13 | GAGACCGCAACTGAAAAGTTGTTACCAGAAATGGGTGGGTTGAATTTCTGCACGTAGAAGCAAAAGGC | 0.0463
14 | GAGACCGCAACTGAAAAGTTGTTACCAGAAATGGCTGGGTTGAATTTCTGCACGTAGAAGCAAAAGGC | 0.00531
15 | GAGACCGCAACTGAAAAGTTGTTACCAGAAATGGTTGGGTTGAATTTCTGCACGTAGAAGCAAAAGGC | 0.009
16 | GAGACCGCAACTGAAAAGTTGTTAACTGAAATGGATGGGTTGAATTTCTGCACGTAGAAGCAAAAGGC | 0.0564
17 | GAGACCGCAACTGAAAAGTTGTTAACCGAAATGGATGGGTTGAATTTCTGCACGTAGAAGCAAAAGGC | 0.0652
18 | GAGACCGCAACTGAAAAGTTGTTAACGGAAATGGATGGGTTGAATTTCTGCACGTAGAAGCAAAAGGC | 0.0139
19 | GAGACCGCAACTGAAAAGTTGTTACCAGAATTGGATGGGTTGAATTTCTGCACGTAGAAGCAAAAGGC | 0.0613
20 | GAGACCGCAACTGAAAAGTTGTTACCAGAAGTGGATGGGTTGAATTTCTGCACGTAGAAGCAAAAGGC | 0.057
21 | GAGACCGCAACTGAAAAGTTGTTACCAGAACTGGATGGGTTGAATTTCTGCACGTAGAAGCAAAAGGC | 0.0548
22 | GAGACCGCAACTGAAAAGTTGTTTTCAGAAAGGGATGGGTTGAATTTCTGCACGTAGAAGCAAAAGGC | 0.00134
23 | GAGACCGCAACTGAAAAGTTGTTAACAGATATGGATGGGTTGAATTTCTGCACGTAGAAGCAAAAGGC | 0.0158
24 | GAGACCGCAACTGAAAAGTTGTTAACAGACATGGATGGGTTGAATTTCTGCACGTAGAAGCAAAAGGC | 0.0114
25 | GAGACCGCAACTGAAAAGTTGTTAACAGAGATGGATGGGTTGAATTTCTGCACGTAGAAGCAAAAGGC | 0.00687
26 | GAGACCGCAACTGAAAAGTTGTTAACAGAAATGGATGGGTTGAATTTCTGCACGTAGAAGCAAAAGGC | 0.00703
27 | GAGACCGCAACTGAAAAGTTGTTACCAGAAATGGATGGGTTGAATTTCTGCACGTAGAAGCAAAAGGC | 0.0278

Row | Variant | fraction ligated
28 | GAGACCGCAACTGAAAAGTTGTTAACAGAAATGGATGGGTTCAATTTCTGCACGTAGAAGCAAAAGGC | 0.00199
29 | GAGACCGCAACTGAAAAGTTGTTAACAGAAATGGATGGGTTTAATTTCTGCACGTAGAAGCAAAAGGC | 0.00246
30 | GAGACCGCAACTGAAAAGTTGTTAACAGAAATGGATGGGTTAAATTTCTGCACGTAGAAGCAAAAGGC | 0.00144
31 | GAGACCGCAACTGAAAAGTTGTTACAAGAAATGGATGGGTTGAATTTCTGCACGTAGAAGCAAAAGGC | 0.00962
32 | GAGACCGCAACTGAAAAGTTGTTACGAGAAATGGATGGGTTGAATTTCTGCACGTAGAAGCAAAAGGC | 0.00975
33 | GAGACCGCAACTGAAAAGTTGTTACTAGAAATGGATGGGTTGAATTTCTGCACGTAGAAGCAAAAGGC | 0.079
34 | GAGACCGCAACTGAAAAGTTGTTACCAGGAATGGATGGGTTGAATTTCTGCACGTAGAAGCAAAAGGC | 0.0416
35 | GAGACCGCAACTGAAAAGTTGTTACCAGTAATGGATGGGTTGAATTTCTGCACGTAGAAGCAAAAGGC | 0.0467
36 | GAGACCGCAACTGAAAAGTTGTTACCAGCAATGGATGGGTTGAATTTCTGCACGTAGAAGCAAAAGGC | 0.0251
37 | GAGACCGCAACTGAAAAGTTGTTAACAGAAATGGATAGGTTGAATTTCTGCACGTAGAAGCAAAAGGC | 0.00183
38 | GAGACCGCAACTGAAAAGTTGTTAACAGAAATGGATCGGTTGAATTTCTGCACGTAGAAGCAAAAGGC | 0.00598
39 | GAGACCGCAACTGAAAAGTTGTTAACAGAAATGGATTGGTTGAATTTCTGCACGTAGAAGCAAAAGGC | 0.00505
40 | GAGACCGCAACTGAAAAGTTGTTACCAGAAATGGATGGGTTGGATTTCTGCACGTAGAAGCAAAAGGC | 0.00741
41 | GAGACCGCAACTGAAAAGTTGTTACCAGAAATGGATGGGTTGCATTTCTGCACGTAGAAGCAAAAGGC | 0.0068
42 | GAGACCGCAACTGAAAAGTTGTTACCAGAAATGGATGGGTTGTATTTCTGCACGTAGAAGCAAAAGGC | 0.00508
43 | GAGACCGCAACTGAAAAGTTGTTACCAGACATGGATGGGTTGAATTTCTGCACGTAGAAGCAAAAGGC | 0.081
44 | GAGACCGCAACTGAAAAGTTGTTACCAGATATGGATGGGTTGAATTTCTGCACGTAGAAGCAAAAGGC | 0.0786
45 | GAGACCGCAACTGAAAAGTTGTTACCAGAGATGGATGGGTTGAATTTCTGCACGTAGAAGCAAAAGGC | 0.0308
46 | GAGACCGCAACTGAAAAGTTGTTACCAGAAATAGATGGGTTGAATTTCTGCACGTAGAAGCAAAAGGC | 0.0508
47 | GAGACCGCAACTGAAAAGTTGTTAACAGAAACGGATGGGTTGAATTTCTGCACGTAGAAGCAAAAGGC | 0.00391
48 | GAGACCGCAACTGAAAAGTTGTTAACAGAAAGGGATGGGTTGAATTTCTGCACGTAGAAGCAAAAGGC | 0.00199
49 | GAGACCGCAACTGAAAAGTTGTTAACAGAAAAGGATGGGTTGAATTTCTGCACGTAGAAGCAAAAGGC | 0.00329
50 | GAGACCGCAACTGAAAAGTTGTTAAGAGAAATGGATGGGTTGAATTTCTGCACGTAGAAGCAAAAGGC | 0.00462
51 | GAGACCGCAACTGAAAAGTTGTTAAAAGAAATGGATGGGTTGAATTTCTGCACGTAGAAGCAAAAGGC | 0.00271
52 | GAGACCGCAACTGAAAAGTTGTTAATAGAAATGGATGGGTTGAATTTCTGCACGTAGAAGCAAAAGGC | 0.00642
53 | GAGACCGCAACTGAAAAGTTGTTACCAGAAATGGATGGGTTGAGTTTCTGCACGTAGAAGCAAAAGGC | 0.0106
54 | GAGACCGCAACTGAAAAGTTGTTACCAGAAATGGATGGGTTGATTTTCTGCACGTAGAAGCAAAAGGC | 0.0143

Row | Variant | fraction ligated
55 | GAGACCGCAACTGAAAAGTTGTTACCAGAAATGGATGGGTTGACTTTCTGCACGTAGAAGCAAAAGGC | 0.00738
56 | GAGACCGCAACTGAAAAGTTGTTAACAAAAATGGATGGGTTGAATTTCTGCACGTAGAAGCAAAAGGC | 0.011
57 | GAGACCGCAACTGAAAAGTTGTTAACATAAATGGATGGGTTGAATTTCTGCACGTAGAAGCAAAAGGC | 0.0157
58 | GAGACCGCAACTGAAAAGTTGTTAACACAAATGGATGGGTTGAATTTCTGCACGTAGAAGCAAAAGGC | 0.00741
59 | GAGACCGCAACTGAAAAGTTGTTAACAGAAATGGAAGGGTTGAATTTCTGCACGTAGAAGCAAAAGGC | 0.00698
60 | GAGACCGCAACTGAAAAGTTGTTAACAGAAATGGACGGGTTGAATTTCTGCACGTAGAAGCAAAAGGC | 0.00785
61 | GAGACCGCAACTGAAAAGTTGTTAACAGAAATGGAGGGGTTGAATTTCTGCACGTAGAAGCAAAAGGC | 0.0106
62 | GAGACCGCAACTGAAAAGTTGTTAACAGAAATGTATGGGTTGAATTTCTGCACGTAGAAGCAAAAGGC | 0.00319
63 | GAGACCGCAACTGAAAAGTTGTTAACAGAAATGAATGGGTTGAATTTCTGCACGTAGAAGCAAAAGGC | 0.00806
64 | GAGACCGCAACTGAAAAGTTGTTAACAGAAATGCATGGGTTGAATTTCTGCACGTAGAAGCAAAAGGC | 0.0033
65 | GAGACCGCAACTGAAAAGTTGTTAACAGAAATTGATGGGTTGAATTTCTGCACGTAGAAGCAAAAGGC | 0.00763
66 | GAGACCGCAACTGAAAAGTTGTTAACAGAAATAGATGGGTTGAATTTCTGCACGTAGAAGCAAAAGGC | 0.0105
67 | GAGACCGCAACTGAAAAGTTGTTAACAGAAATCGATGGGTTGAATTTCTGCACGTAGAAGCAAAAGGC | 0.00366
68 | GAGACCGCAACTGAAAAGTTGTTACCCGAAATGGATGGGTTGAATTTCTGCACGTAGAAGCAAAAGGC | 0.113
69 | GAGACCGCAACTGAAAAGTTGTTACCTGAAATGGATGGGTTGAATTTCTGCACGTAGAAGCAAAAGGC | 0.407
70 | GAGACCGCAACTGAAAAGTTGTTACCGGAAATGGATGGGTTGAATTTCTGCACGTAGAAGCAAAAGGC | 0.209
71 | GAGACCGCAACTGAAAAGTTGTTAACAGAAATGGATGGGTTGATTTTCTGCACGTAGAAGCAAAAGGC | 0.0103
72 | GAGACCGCAACTGAAAAGTTGTTAACAGAAATGGATGGGTTGAGTTTCTGCACGTAGAAGCAAAAGGC | 0.00172
73 | GAGACCGCAACTGAAAAGTTGTTAACAGAAATGGATGGGTTGACTTTCTGCACGTAGAAGCAAAAGGC | 0.00273
74 | GAGACCGCAACTGAAAAGTTGTTACCAAAAATGGATGGGTTGAATTTCTGCACGTAGAAGCAAAAGGC | 0.15
75 | GAGACCGCAACTGAAAAGTTGTTACCATAAATGGATGGGTTGAATTTCTGCACGTAGAAGCAAAAGGC | 0.207
76 | GAGACCGCAACTGAAAAGTTGTTACCACAAATGGATGGGTTGAATTTCTGCACGTAGAAGCAAAAGGC | 0.165
77 | GAGACCGCAACTGAAAAGTTGTTAACAGAAATGGATGGGTTGGATTTCTGCACGTAGAAGCAAAAGGC | 0.00383
78 | GAGACCGCAACTGAAAAGTTGTTAACAGAAATGGATGGGTTGCATTTCTGCACGTAGAAGCAAAAGGC | 0.00284
79 | GAGACCGCAACTGAAAAGTTGTTAACAGAAATGGATGGGTTGTATTTCTGCACGTAGAAGCAAAAGGC | 0.00628
